This note sets out measurements from patent publication EP1752160A2 (Mannkind Corporation, dated 2007).

In assay [1] the target is T1, HLA-A2.1 (human).
T1 construct: also called HLA-A*0201; HLA-A0201
The assay is described as follows: T2 cell HLA-A2.1 stabilisation assay, flow cytometry.

In assay [2] the target is T1, HLA-A2.1. As to the kind of experiment: T2 cell HLA-A*0201 stabilisation assay, flow cytometry.
The target in assay [3] is T1, HLA-A2.1. The assay is described as follows: HLA-A2 binding assay on T2 cells, flow cytometry. On the technique in general: Flow cytometry measures light scatter and fluorescence of single cells or particles in a stream.

With KASEKIFYV (Synthetic 9-mer of SSX-2) [SSX-2 41-49], in the assay with HLA-A2.1 [1], the binding result is “binds”.

B1: PSMA663-671 (peptide)
peptide: MMNDQLMFL
notes: 9-mer of prostate specific membrane antigen
Take B1: the binding result with HLA-A2.1 [2] is on record as “binds”.

B2: tyrosinase208-216 (peptide)
peptide: LPWHRLFLL
notes: Synthetic 9-mer of tyrosinase; also called Tyr 208-216
Take B2: the binding result with HLA-A2.1 [3] is on record as “binds”.

B3: tyrosinase207-215 (peptide)
peptide: FLPWHRLFL
notes: Synthetic 9-mer of tyrosinase; also called Tyr 207-215
Take B3: the binding result in the assay with HLA-A2.1 [3] is listed as “binds”.
